B1: 10492 (protein)
chain: MALPVTALLLPLALLLHAARPDVVMTQSPSSLSASVGDRVTITCRASQDISKYLNWYQQKPGKAPKLLIYHTSRLHSGVPSRFSGSGSGTDFTLTISSLQPEDFATYYCQQGNTLPYTFGGGTKVEIKLEDLKNVFPPEVAVFCPSEAEISHTQKATLVCLATGFYPDHVELSWWVNGKEVHSGVSTDPQPLKEQPALNDSRYCLSSRLRVSATFWQNPRNHFRCQVQFYGLSENDEWTQDRAKPVTQIVSAEAWGRADCGFTSESYQQGVLSATILYEILLGKATLYAVLVSALVLMAMVKRKDSRGRAKRSGSGATNFSLLKQAGDVEENPGPTSMDWIWRILFLVGAATGAHSFEQVQLQESGPGLVKPSQTLSLTCTVSGVSLPDYGVSWIRQPPGKGLEWIGVIWGSETTYYNSALKSRVLISVDTSKNQVSLKLSSVTAADTAVYYCARHYYYGGSYAMDYWGQGTTVTVSSTRIQNPDPAVYQLRDCKSSDKSVCLFTDFDSQTNVSQSKDSDVYITDKTVLDMRSMDFKSNSAVAWSNKSDFACANAFNNSIIPEDTFFPSPESSCDVKLVEKSFETDTNLNFQNLSVIGFRILLLKVAGFNLLMTLRLWSS
B2: 10493 (protein)
chain: MALPVTALLLPLALLLHAARPDVVMTQSPSSLSASVGDRVTITCRASQDISKYLNWYQQKPGKAPKLLIYHTSRLHSGVPSRFSGSGSGTDFTLTISSLQPEDFATYYCQQGNTLPYTFGGGTKVEIKLEDLKNVFPPEVAVFEPSEAEISHTQKATLVCLATGFYPDHVELSWWVNGKEVHSGVSTCPQPLKEQPALNDSRYCLSSRLRVSATFWQNPRNHFRCQVQFYGLSENDEWTQDRAKPVTQIVSAEAWGRADCGFTSESYQQGVLSATILYEILLGKATLYAVLVSALVLMAMVKRKDSRGRAKRSGSGATNFSLLKQAGDVEENPGPTSMDWIWRILFLVGAATGAHSFEQVQLQESGPGLVKPSQTLSLTCTVSGVSLPDYGVSWIRQPPGKGLEWIGVIWGSETTYYNSALKSRVLISVDTSKNQVSLKLSSVTAADTAVYYCARHYYYGGSYAMDYWGQGTTVTVSSTRIQNPDPAVYQLRDSKSSDKSVCLFTDFDSQTNVSQSKDSDVYICDKTVLDMRSMDFKSNSAVAWSNKSDFACANAFNNSIIPEDTFFPSPESSCDVKLVEKSFETDTNLNFQNLSVIGFRILLLKVAGFNLLMTLRLWSS
B3: 10494 (protein)
chain: MALPVTALLLPLALLLHAARPDVVMTQSPSSLSASVGDRVTITCRASQDISKYLNWYQQKPGKAPKLLIYHTSRLHSGVPSRFSGSGSGTDFTLTISSLQPEDFATYYCQQGNTLPYTFGGGTKVEIKLEDLKNVFPPEVAVFEPSEAEISHTQKATLVCLATGFYPDHVELSWWVNGKEVHSGVSTDPQPLKEQPALNDSRYCLCSRLRVSATFWQNPRNHFRCQVQFYGLSENDEWTQDRAKPVTQIVSAEAWGRADCGFTSESYQQGVLSATILYEILLGKATLYAVLVSALVLMAMVKRKDSRGRAKRSGSGATNFSLLKQAGDVEENPGPTSMDWIWRILFLVGAATGAHSFEQVQLQESGPGLVKPSQTLSLTCTVSGVSLPDYGVSWIRQPPGKGLEWIGVIWGSETTYYNSALKSRVLISVDTSKNQVSLKLSSVTAADTAVYYCARHYYYGGSYAMDYWGQGTTVTVSSTRIQNPDPAVYQLRDSKSSDKSVCLFTDFDSQTNVSQSKDSDVYICDKTVLDMRSMDFKSNSAVAWSNKSDFACANAFNNSIIPEDTFFPSPESSCDVKLVEKSFETDTNLNFQNLSVIGFRILLLKVAGFNLLMTLRLWSS
B4: 10495 (protein)
chain: MALPVTALLLPLALLLHAARPDVVMTQSPSSLSASVGDRVTITCRASQDISKYLNWYQQKPGKAPKLLIYHTSRLHSGVPSRFSGSGSGTDFTLTISSLQPEDFATYYCQQGNTLPYTFGGGTKVEIKLEDLKNVFPPEVAVFEPCEAEISHTQKATLVCLATGFYPDHVELSWWVNGKEVHSGVSTDPQPLKEQPALNDSRYCLSSRLRVSATFWQNPRNHFRCQVQFYGLSENDEWTQDRAKPVTQIVSAEAWGRADCGFTSESYQQGVLSATILYEILLGKATLYAVLVSALVLMAMVKRKDSRGRAKRSGSGATNFSLLKQAGDVEENPGPTSMDWIWRILFLVGAATGAHSFEQVQLQESGPGLVKPSQTLSLTCTVSGVSLPDYGVSWIRQPPGKGLEWIGVIWGSETTYYNSALKSRVLISVDTSKNQVSLKLSSVTAADTAVYYCARHYYYGGSYAMDYWGQGTTVTVSSTRIQNPDPAVCQLRDSKSSDKSVCLFTDFDSQTNVSQSKDSDVYITDKTVLDMRSMDFKSNSAVAWSNKSDFACANAFNNSIIPEDTFFPSPESSCDVKLVEKSFETDTNLNFQNLSVIGFRILLLKVAGFNLLMTLRLWSS
B5: 11240 (protein)
chain: MALPVTALLLPLALLLHAARPDIVMTQSPATLSLSPGERATLSCRSSKSLQNVNGNTYLYWFQQKPGQSPQLLIYRMSNLNSGVPDRFSGSGSGTEFTLTISSLEPEDFAVYYCMQHLEYPITFGAGTKLEIKLEEQKLISEEDLGSGEDLKNVFPPEVAVFEPSKAEIAHTQKATLVCLATGFYPDHVELSWWVNGKEVHSGVCTDPQPLKEQPALNDSRYCLSSRLRVSATFWQNPRNHFRCQVQFYGLSENDEWTQDRAKPVTQIVSAEAWGRADCGITSASYHQGVLSATILYEILLGKATLYAVLVSALVLMAMVKRKDSRGRAKRSGSGATNFSLLKQAGDVEENPGPTSMDWIWRILFLVGAATGAHSFEEVQLVESGGGLVKPGGSLKLSCAASGYTFTSYVMHWVRQAPGKGLEWIGYINPYNDGTKYNEKFQGRVTISSDKSISTAYMELSSLRSEDTAMYYCARGTYYYGTRVFDYWGQGTLVTVSSTREQKLISEEDLGSGIQNPDPAVYQLRDSKSSDKSVCLFTDFDSQTNVSQSKDSDVYITDKCVLDMRSMDFKSNSAVAWSNKSDFACANAFNNSIIPEDTFFPSSDVPCDVKLVEKSFETDTNLNFQNLSVIGFRILLLKVAGFNLLMTLRLWSSRAKRSGSGVKQTLNFDLLKLAGDVESNPGPSRGHMTEYKPTVRLATRDDVPRAVRTLAAAFADYPATRHTVDPDRHIERVTELQELFLTRVGLDIGKVWVADDGAAVAVWTTPESVEAGAVFAEIGPRMAELSGSRLAAQQQMEGLLAPHRPKEPAWFLATVGVSPDHQGKGLGSAVVLPGVEAAERAGVPAFLETSAPRNLPFYERLGFTVTADVEVPEGPRTWCMTRKPGA
B6: 11245 (protein)
chain: MALPVTALLLPLALLLHAARPDIQMTQSPSSLSASVGDRVTITCKASDHINNWLAWYQQKPGQAPKLLIYGATTLETGVPSRFSGSGSGTDYTLTISSLQPEDFATYYCQQSWNTPWTFGQGTKLEIKRLEDLKNVFPPEVAVFEPSKAEIAHTQKATLVCLATGFYPDHVELSWWVNGKEVHSGVCTDPQPLKEQPALNDSRYCLSSRLRVSATFWQNPRNHFRCQVQFYGLSENDEWTQDRAKPVTQIVSAEAWGRADCGITSASYHQGVLSATILYEILLGKATLYAVLVSALVLMAMVKRKDSRGRAKRSGSGATNFSLLKQAGDVEENPGPTSMDWIWRILFLVGAATGAHSFEQVQLQQPGAELVKPGASVKMSCKASGYAFSSYWINWMKQKPGQGLEWIGQIYPGDGDTNYNGKFKGRATLTADTSSSTAYMQLSSLTSEDSAVYFCARSITTVVGCAMDYWGQGTSVTVSSTRIQNPDPAVYQLRDSKSSDKSVCLFTDFDSQTNVSQSKDSDVYITDKCVLDMRSMDFKSNSAVAWSNKSDFACANAFNNSIIPEDTFFPSSDVPCDVKLVEKSFETDTNLNFQNLSVIGFRILLLKVAGFNLLMTLRLWSSRAKRSGSGVKQTLNFDLLKLAGDVESNPGPSRGHMTEYKPTVRLATRDDVPRAVRTLAAAFADYPATRHTVDPDRHIERVTELQELFLTRVGLDIGKVWVADDGAAVAVWTTPESVEAGAVFAEIGPRMAELSGSRLAAQQQMEGLLAPHRPKEPAWFLATVGVSPDHQGKGLGSAVVLPGVEAAERAGVPAFLETSAPRNLPFYERLGFTVTADVEVPEGPRTWCMTRKPGA

Columns and labels:
[1] = FACS detection of CARs and SIRs by Myc and Protein L staining (cell surface expression); assay type: cell-based, human; conditions: staining with APC-conjugated Protein-L, Jurkat-NFAT-GFP cells
Description: FACS analysis. Mouse Anti-Human c-Myc APC-conjugated Monoclonal Antibody (Catalog #IC3696A) was from R&D Systems (Minneapolis, MN). Biotinylated protein L was purchased from GeneScript (Piscataway, NJ), reconstituted in phosphate buffered saline (PBS) at 1 mg/ml and stored at 4° C. Streptavidin-APC (SA1005) was purchased from ThermoFisher Scientific.
For detection of CARs and SIRs using Myc staining, 1×10^6 cells were harvested and washed three times with 3 ml of ice-cold 1×PBS containing 4% bovine serum albumin (BSA) wash buffer. After wash, cells were resuspended in 0.1 ml of the ice-cold wash buffer containing 10 μl of APC-conjugated Myc antibody and incubated in dark for 1 hour followed by two washings with ice cold wash buffer.
For detection of CARs and SIRs using Protein L staining, 1×10^6 cells were harvested and washed three times with 3 ml of ice-cold 1×PBS containing 4% bovine serum albumin (BSA) wash buffer. After wash, cells were resuspended in 0.1 ml of the ice-cold wash buffer containing 1 μg of protein L at 4° C. for 1 hour. Cells were washed three times with ice-cold wash buffer, and then incubated (in the dark) with 10 μl of APC-conjugated streptavidin in 0.1 ml of the wash buffer for 30 minutes followed by two washings with ice cold wash buffer. FACS was done using FACSVerse analyzer from BD Biosciences.

[2] = test system: RAJI cells; assay: Jurkat NFAT-GFP assay, coculture with RAJI cells; assay type: cell-based, human
Description: (B) Induction of NFAT promoter driven GFP expression. The control vector- and SIR-expressing Jurkat-NFAT-GFP cocultured for 4-24 hours with the target antigen-expressing cell line (described above) and their ability to bind to the target antigen is assayed by measuring induction of GFP expression using Flow Cytometry. Cellular supernatant is collected and assayed for the induction of cytokines (e.g., IL2).
Jurkat NFAT-GFP Assay For Synthetic Immune Receptors. The Jurkat-NFAT-GFP cells are engineered in such a way that the IL-2 promoter, which carries NFAT binding sites, is cloned upstream of the GFP gene. These cells have been used to study signaling via TCR and CAR. The different SIRs were stably expressed in Jurkat NFAT-GFP cells by lentiviral mediated gene transfer, followed by selection with puromycin. The SIR-expressing Jurkat-NFAT-GFP cells were cocultured with the target cells at E:T ratio of approximately 1:2 for approximately 4 hours to 18 hours. When the interaction between SIRs and their target antigen results in activation of the NFAT pathway, GFP expression is induced.
Induction of GFP expression by coculturing of Jurkat-NFAT-GFP cells expressing different SIR constructs and the different target cells was studied essentially as described previously (Wu, Roybal, Puchner, Onuffer, & Lim, 2015). GFP expression was monitored by FACS analysis. […] In panel B, Jurkat cells expressing SIR targeting CDH6 (Clone ID: 051716-J05), CD276 (Clone ID: 050516-Q06) and Her2/neu (Clone ID: 050516-I03) were incubated with SKOV3 (top) and […] (middle and bottom) cells, respectively. […] The Jurkat-NFAT-GFP cells were engineered to express different SIRs targeting other antigens and the experiment repeated upon coculture with the target cells expressing their respective target antigen. The Jurkat-NFAT-GFP (parental) cells were used as control. […] The names of different SIRs, their SEQ ID NOs, component antigen binding domains and TCR chains can be determined by reference to Tables 7A-7H. A SIR is considered positive in the assay in case the SIR expressing Jurkat-NFAT-GFP cells show greater % GFP positive cells when cultured with the target cell line as compared to parental Jurkat-NFAT-GFP cells. […] The signs +/−, +, 2+ etc. after the name of the cell lines indicate the relative degree of positivity on the Jurkat-NFAT-GFP assay as measured by the % GFP positive cells after culture of the SIR expressing Jurkat-NFAT-GFP cells with that cell line.

[3] = GFP expression upon 18 hour co-culture with RAJI cells, Table 10B
[4] = overnight co-culture with RAJI cells, Table 10C

| Molecule | Prt-L-APC (%) [1] | NFAT-GFP (%) [2, 3] | NFAT-GFP (%) [2, 4] |
| --- | --- | --- | --- |
| B1 | 8% | 2.48% |  |
| B2 | 9% | 1.35% |  |
| B3 | 7% | 0.9% |  |
| B4 | 0% | 1.99% |  |
| B5 |  |  | 31.59% |
| B6 |  |  | 71.81% |

Reference: patent US12269859B2, “Synthetic immune receptors and methods of use thereof” (Angeles Therapeutics, Inc., priority 2016, dated 2025)
